Patent publication US20170129959A1 (OSE IMMUNOTHERAPEUTICS, published 2017)
Positions count from the first letter of the chain named. Numbers in names are those of the source. Where “and” joins values, the source holds several entries; their conditions need not be identical. Equal values may be shown once.

T1: Human CD127 (IL-7 receptor alpha chain) expressed on cells (human, UniProt P16871 21-459)
T1 chain: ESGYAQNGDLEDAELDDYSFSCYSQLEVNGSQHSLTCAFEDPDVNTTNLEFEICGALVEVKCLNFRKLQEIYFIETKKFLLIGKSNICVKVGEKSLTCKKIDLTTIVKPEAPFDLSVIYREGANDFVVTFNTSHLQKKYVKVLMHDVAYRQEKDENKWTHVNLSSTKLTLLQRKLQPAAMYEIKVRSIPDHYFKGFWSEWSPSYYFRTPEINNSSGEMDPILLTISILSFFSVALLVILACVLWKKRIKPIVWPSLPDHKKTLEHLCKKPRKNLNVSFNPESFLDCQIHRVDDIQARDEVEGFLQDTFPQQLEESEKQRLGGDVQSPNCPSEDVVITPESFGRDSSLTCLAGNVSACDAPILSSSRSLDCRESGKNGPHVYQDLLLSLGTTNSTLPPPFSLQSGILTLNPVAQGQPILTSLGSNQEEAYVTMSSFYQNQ

T2: Recombinant CD127 Fc Chimera (10975-H03H, Sino Biological) (human, UniProt P16871 21-239)
T2 construct: Bought protein; also called hCD127-Ig; human CD127Fc; not shown: constant fragment of an immunoglobulin
T2 chain: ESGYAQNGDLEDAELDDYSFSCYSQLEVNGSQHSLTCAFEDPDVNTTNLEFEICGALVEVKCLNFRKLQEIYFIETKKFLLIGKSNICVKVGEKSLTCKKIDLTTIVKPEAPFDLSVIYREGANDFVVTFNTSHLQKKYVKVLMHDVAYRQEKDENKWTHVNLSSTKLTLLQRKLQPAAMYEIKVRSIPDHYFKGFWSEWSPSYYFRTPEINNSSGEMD

T3: Recombinant hCD127 (Sino Biologicals, reference 10975-H08H) (human, UniProt P16871 21-239)
T3 construct: Bought protein; also called recombinant hCD127 antigen; rCD127
T3 chain: T2 chain

B1: N13B2-h2 (humanized N13B2) (antibody, V domains shown)
VH: QVQLVESGGGLVKPGGSLRLSCAVSGFTLSDYYMAWIRQAPGKGLEWVSTISASGLRTYYPDSVKGRFTISRDNAKNSLYLQMNSLRAEDTAVYYCARPMSAHYGFNYFDYWGQGTLVTVSS
VL: EIVMTQSPATLSVSPGERATLSCRTSEDIYNGLAWYQQKPGQAPRLLIYSANSLHIGIPARFSGSGSGTEFTLTISSLQSEDFAVYYCQQYYDYPLAFGGGTKVEIK
notes: Variable regions only
B2: N13B2-h3 (humanized N13B2) (antibody, IgG4, V domains shown)
VH: B1 VH with M100L
VL: B1 VL with N31Q, S53T
notes: Variable regions only
B3: N13B2-h1 (humanized N13B2) (antibody, V domains shown)
VH: B1 VH with I37V, S49A, N74D
VL: B1 VL with I48V, F71Y, Y87F
B4: N13B2 wt (antibody, V domains shown)
VH: AVQLVESGGGLVQPGGSLKLSCAVSGFTLSDYYMAWVRQAPKKGLEWVATISASGLRTYYPDSVKGRFTISRDDAKRSLFLQMTSLKSEDTATYYCARPMSAHYGFNYFDYWGQGVMVTVSS
VL: DIQMTQSPASLSASLGETVTIECRTSEDIYNGLAWYQQKPGKSPQLLVYSANSLHIGVPSRFSGSGSGTQYSLKINSLQFEDVASYFCQQYYDYPLAFGSGTKLEIKR
notes: also called Rat N13B2 wt
B5: N13B2 (rat anti-human CD127 monoclonal antibody) (antibody, V domains shown)
VH: B4 VH
VL: B4 VL
notes: Rat hybridoma antibody; It was detected with anti-rat kappa; also called rat N13B2; N13B2 mAb
B6: N13B2-G4 (chimeric N13B2, human IgG4 Fc S228P, human CL kappa) (antibody)
heavy: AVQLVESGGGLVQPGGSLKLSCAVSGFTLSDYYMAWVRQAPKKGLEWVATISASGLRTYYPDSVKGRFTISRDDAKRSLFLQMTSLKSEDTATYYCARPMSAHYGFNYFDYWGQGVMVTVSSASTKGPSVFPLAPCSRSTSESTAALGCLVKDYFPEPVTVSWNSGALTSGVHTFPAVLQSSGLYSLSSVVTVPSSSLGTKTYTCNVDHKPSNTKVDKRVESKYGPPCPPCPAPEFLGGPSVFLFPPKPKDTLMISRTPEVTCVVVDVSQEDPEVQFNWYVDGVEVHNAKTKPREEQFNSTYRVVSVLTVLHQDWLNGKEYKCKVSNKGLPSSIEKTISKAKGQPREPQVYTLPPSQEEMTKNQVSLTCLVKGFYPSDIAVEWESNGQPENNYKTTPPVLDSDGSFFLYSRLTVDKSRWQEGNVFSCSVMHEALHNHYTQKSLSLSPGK
light: DIQMTQSPASLSASLGETVTIECRTSEDIYNGLAWYQQKPGKSPQLLVYSANSLHIGVPSRFSGSGSGTQYSLKINSLQFEDVASYFCQQYYDYPLAFGSGTKLEIKRTVAAPSVFIFPPSDEQLKSGTASVVCLLNNFYPREAKVQWKVDNALQSGNSQESVTEQDSKDSTYSLSSTLTLSKADYEKHKVYACEVTHQGLSSPVTKSFNRGEC
notes: also called cN13B2-G4; N13B2-G4m
B7: N13B2-G1 (chimeric N13B2, human IgG1 Fc E333A, human CL kappa) (antibody)
heavy: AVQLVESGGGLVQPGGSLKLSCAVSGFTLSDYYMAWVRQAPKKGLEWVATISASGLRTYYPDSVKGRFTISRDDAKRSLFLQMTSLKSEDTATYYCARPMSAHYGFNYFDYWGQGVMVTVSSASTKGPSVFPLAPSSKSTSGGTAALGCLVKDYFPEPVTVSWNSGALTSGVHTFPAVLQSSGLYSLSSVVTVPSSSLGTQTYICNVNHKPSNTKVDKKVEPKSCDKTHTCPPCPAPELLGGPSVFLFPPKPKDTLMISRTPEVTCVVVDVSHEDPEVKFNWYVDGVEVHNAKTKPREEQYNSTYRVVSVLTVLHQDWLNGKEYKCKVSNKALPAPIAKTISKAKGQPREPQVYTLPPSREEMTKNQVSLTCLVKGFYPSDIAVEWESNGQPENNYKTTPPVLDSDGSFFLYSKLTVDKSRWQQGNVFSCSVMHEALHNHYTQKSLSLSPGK
light: B6 light
notes: also called cN13B2-G1; N13B2-G1m
B8: MD707-3 (rat anti-human CD127 antibody, previous generation) (antibody, V domains shown)
VH: AVHLVESGGGLVQPKESLKISCAASGFTFSNAAMYWVRQAPGKGLEWVARIRTKANNYATYYAESVKGRFTISRDDSKSMVYLQMDNVKTDDTAMYYCIVVVLTTTRDYFDYWGQGVMVTVSS
VL: DIVLTQAPLSVSVTPGESASISCRSSQSLLTVKGITSLYWFLQKPGKSPQLLIYRMSNLASGVPDRFRGSGSETDFTLKISKVETEDVGVYYCAQFLEYPHTFGAGTKLELKR

Experiments:
[1] = biological target: T1, Human CD127 (IL-7 receptor alpha chain) …; assay: cell-based or functional assay
[2] = biological target: T2, Recombinant CD127 Fc Chimera …; assay: ELISA, human CD127Fc coated, revealed with anti-human kappa antibody; printed as ED 50
[3] = biological target: T3, Recombinant hCD127 (Sino Biologicals, …); assay: ELISA on immobilised recombinant hCD127; antibody after four frost/defrost events
[4] = biological target: T3, Recombinant hCD127 (Sino Biologicals, …); assay: ELISA on coated recombinant hCD127, anti-human kappa detection; antibody stored 7 days at -80 °C; printed as ED 50
Experimental: (§1) FIG. 15. Stability assay of humanized versus Rat anti-CD127 antibodies. Antibody concentrations was measured by ELISA after 7 days at 37° C. (Rat N13B2 wt (+) or humanized N13B2 h3 (square)) and at −80° C. (Rat N13B2 wt (X) or humanized N13B2 h3 (triangle)) and after four frost/defrost events (diamonds).
(§2) Humanized and chimeric purified N13B2-G1 were incubated at 37° C. or at −80° C. for 7 days. Two assays were used to measure stability of antibody: binding anti-CD127 by ELISA assay, and aggregate formation by gel filtration. For activity ELISA assay, recombinant hCD127 (Sino Biologicals, Beijing, China; reference 10975-H08H) was immobilized on plastic at lpg/ml and dilutions of supernatant were added to measure binding. […] For analysis of aggregate formation, sample was analysed on gel filtration chromatography column (Superdex 200, 10/300GL, GeHealthcare) to separate and evaluate aggregate and monomer from samples.

[5] = biological target: T3, Recombinant hCD127 (Sino Biologicals, …); assay: ELISA on immobilised recombinant hCD127; antibody stored 7 days at -80 °C
Experimental: as §1, §2

[6] = biological target: T3, Recombinant hCD127 (Sino Biologicals, …); assay: ELISA on coated recombinant hCD127, anti-human kappa detection; antibody after 4 frost/defrost events; printed as ED 50
[7] = biological target: T3, Recombinant hCD127 (Sino Biologicals, …); assay: ELISA on coated recombinant hCD127, anti-human kappa detection; antibody stored 7 days at 37 °C; printed as ED 50
Experimental: as §1, §2

[8] = biological target: T3, Recombinant hCD127 (Sino Biologicals, …); assay: ELISA on immobilised recombinant hCD127; antibody stored 7 days at 37 °C
Experimental: as §1, §2

[9] = biological target: T2, Recombinant CD127 Fc Chimera …; assay: ELISA, coated human CD127Fc, revealed with an anti-human kappa antibody
[10] = biological target: T2, Recombinant CD127 Fc Chimera …; assay: SPR (Biacore 3000), CD127Fc immobilised on CM5 chip, antibody injected, Bivalent analyte model; separate experiment
Experimental: (§3) A CM5 chip (GE healthcare) was activated by injection of NHS/EDC mix for 7 min. […] The free reactive residues were inactivated by the injection of 1M ethanolamine pH8.5. […] The injection rate was set at 40 μL/min, the association was measured for 3 min and dissociation for 10 min. Between each cycle of the analysis, the chip was regenerated by injection of a solution of 5M MgCl2 for 60 s.

[11] = biological target: T3, Recombinant hCD127 (Sino Biologicals, …); assay: ELISA, recombinant hCD127 coated on plastic at 1 µg/ml, antibody titrated; printed as ED 50
Experimental: FIG. 4. The Anti CD127 activity of the new antibody N13B2 was measured by ELISA assay using a recombinant hCD127 antigen. OD 450 nm: optical density at 450 nm. A. The CD127 binding activity of the N13B2 (full circle) was compared to the previous antibody generation (MD707-1 (empty diamond), 3 (empty triangle) and 6 (full square)). N13B2 appears as the most efficient binder in the assay. B. The CD127 activity between different N13B2 formats (rat, IgG1 (circle) or IgG4 (square)) was compared. No significant difference in binding activity was observed.
(§4) The binding activity of the anti hCD127 antibody was assessed by ELISA (Enzyme-linked immunosorbent assay). For the ELISA assay, recombinant hCD127 (Sino Biologicals, Beijing, China; reference 10975-H08H) was immobilized on plastic at 1 μg/ml and purified antibody were added to measure binding.

[12] = biological target: T1, Human CD127 (IL-7 receptor alpha chain) …; assay: cell-based or functional assay
[13] = biological target: T2, Recombinant CD127 Fc Chimera …; assay: SPR (Biacore 3000), CD127Fc immobilised on CM5 chip, antibody injected, Bivalent analyte model
Experimental: FIG. 3. (A) Binding studies of rat N13B2 anti-CD127 antibody. N13B2 antibody or MD707-1 were injected on a CD127 immobilized antigen at different concentration. Resp. diff: Response difference. Time: time in sec (total duration: 20 min). Blk: blank (no antibody). The association and dissociation curves were analyzed with model “Bivalent analyte” on BIAeval 4 software.
as §3

[14] = biological target: T1, Human CD127 (IL-7 receptor alpha chain) …; assay: cell-based or functional assay
[15] = biological target: T3, Recombinant hCD127 (Sino Biologicals, …); assay: ELISA on immobilised recombinant hCD127
Experimental: as §4

Row | Binder | IC 50 of inhibition of IL7 induced P-STAT5 on T lymphocytes (0.1 ng/ml rhIL-7) [1] [ng/mL] | EC50 [2] [ng/mL] | Ka [10] [M⁻¹] | Kd [10] [nM] | koff [10] [s⁻¹] | kon [10] [M⁻¹ s⁻¹] | EC50 [11] [ng/mL] | IC50 on P-STAT5 induced by 100 pg/ml of rhIL7 [12] [ng/mL] | inhibition of STAT5 phosphorylation in human PBMC [14] | further results
1 | B1 | 18.7 | 0.6 |  |  |  |  |  |  |  | 
2 | B2 | 21.2 | 0.6 |  |  |  |  |  |  |  | EC50 (read off the curve) [3]: ~2 ng/mL; EC50 [4]: 1.3 ng/mL; EC50 (read off the curve) [5]: ~1 ng/mL; EC50 [6]: 1.7 ng/mL; EC50 [7]: 1.1 ng/mL; EC50 (read off the curve) [8]: ~1 ng/mL
3 | B3 | 63.8 | 2.4 |  |  |  |  |  |  |  | EC50 (read off the curve) [9]: ~2 ng/mL
4 | B4 | 50.2 | 3 |  |  |  |  |  |  |  | EC50 [4]: 3.6 ng/mL; EC50 (read off the curve) [9]: ~3 ng/mL; EC50 (read off the curve) [5]: ~3 ng/mL; EC50 [7]: 3.5 ng/mL; EC50 (read off the curve) [8]: ~4 ng/mL
5 | B5 |  |  | 2.03e+10 | 0.0493 | 4.75e-06 | 96300 | 65.6 | 0.043 | > 50 % inhibition at 50 ng/ml and > 80 % inhibition at 100 ng/ml (0.1 ng/ml IL-7) and > 90 % inhibition at 100 ng/ml (5 ng/ml IL-7) | Ka [13]: 1.26e+10 M⁻¹; Kd [13]: 0.0796 nM; koff [13]: 1.6e-05 s⁻¹; kon [13]: 201000 M⁻¹ s⁻¹; EC50 (read off the curve) [15]: ~60 ng/mL
6 | B6 |  |  | 5.89e+09 | 0.17 | 3.41e-06 | 20100 | 12.6 | 0.037 | > 50 % inhibition at 50 ng/ml and > 80 % inhibition at 100 ng/ml (0.1 ng/ml IL-7) and > 90 % inhibition at 100 ng/ml (5 ng/ml IL-7) | 
7 | B7 |  |  | 2.65e+09 | 0.377 | 5.62e-05 | 149000 | 12 | 0.028 | > 50 % inhibition at 50 ng/ml and > 80 % inhibition at 100 ng/ml (0.1 ng/ml IL-7) and > 90 % inhibition at 100 ng/ml (5 ng/ml IL-7) | 
8 | B8 |  |  |  |  |  |  | 293 | 1.09 |  | 
